The values that follow are results of earlier work, collected in publication PMC5372734.

Like-named read-outs stand apart in the source and are kept apart here.

Data set [1] addresses Factor XIIa (Homo sapiens) (UniProt P00748).
The target is the same in data set [2]. This is another data set of the same source.

UniProt P00748, sequence (P00748 whole entry, looked up): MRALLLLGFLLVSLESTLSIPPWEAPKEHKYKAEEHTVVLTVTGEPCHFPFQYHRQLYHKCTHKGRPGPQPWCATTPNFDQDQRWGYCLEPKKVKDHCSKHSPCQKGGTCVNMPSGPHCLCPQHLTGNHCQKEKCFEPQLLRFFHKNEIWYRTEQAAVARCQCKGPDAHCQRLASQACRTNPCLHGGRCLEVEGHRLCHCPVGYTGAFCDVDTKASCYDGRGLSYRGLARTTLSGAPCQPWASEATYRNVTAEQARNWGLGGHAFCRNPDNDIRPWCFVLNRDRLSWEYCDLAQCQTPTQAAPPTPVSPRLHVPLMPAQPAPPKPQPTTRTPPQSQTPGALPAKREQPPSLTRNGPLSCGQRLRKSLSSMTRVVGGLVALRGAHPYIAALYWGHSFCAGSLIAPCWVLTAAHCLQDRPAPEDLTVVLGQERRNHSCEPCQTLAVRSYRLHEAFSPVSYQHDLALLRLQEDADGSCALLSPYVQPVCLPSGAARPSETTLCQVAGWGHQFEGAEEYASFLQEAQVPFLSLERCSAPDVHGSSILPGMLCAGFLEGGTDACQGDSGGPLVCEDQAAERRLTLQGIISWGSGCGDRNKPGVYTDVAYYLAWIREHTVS

As for “Histidine-rich glycoprotein (from UniProt P04196)”, the Kd in data set [1] was 9 pM; in data set [2], 1600 pM.

Broadly, the Kd is the free concentration of one partner at which half of the binding sites on the other are occupied at equilibrium, for simple one-to-one binding.
